Experimental data published in patent publication US20130136743A1 (LABORATOIRE FRANCAIS DU FRACTIONNEMENT ET DES …, published 2013).
Residue numbers refer to the chain shown, from its start. Numbers in names are those of the source.

Key:
[1] = target: T1, AMHRII receptor expressed on cells (cov434-AMHRII, Asc 1, META 2815) (human, UniProt Q16671 18-573); assay: saturation binding of 125I-labelled antibody to cov434-AMHRII cells, Scatchard analysis
T1 construct: whole, on cells; The cell line is named in the assay or readout field of each row; also called AMHRII antigen
T1 sequence (looked up): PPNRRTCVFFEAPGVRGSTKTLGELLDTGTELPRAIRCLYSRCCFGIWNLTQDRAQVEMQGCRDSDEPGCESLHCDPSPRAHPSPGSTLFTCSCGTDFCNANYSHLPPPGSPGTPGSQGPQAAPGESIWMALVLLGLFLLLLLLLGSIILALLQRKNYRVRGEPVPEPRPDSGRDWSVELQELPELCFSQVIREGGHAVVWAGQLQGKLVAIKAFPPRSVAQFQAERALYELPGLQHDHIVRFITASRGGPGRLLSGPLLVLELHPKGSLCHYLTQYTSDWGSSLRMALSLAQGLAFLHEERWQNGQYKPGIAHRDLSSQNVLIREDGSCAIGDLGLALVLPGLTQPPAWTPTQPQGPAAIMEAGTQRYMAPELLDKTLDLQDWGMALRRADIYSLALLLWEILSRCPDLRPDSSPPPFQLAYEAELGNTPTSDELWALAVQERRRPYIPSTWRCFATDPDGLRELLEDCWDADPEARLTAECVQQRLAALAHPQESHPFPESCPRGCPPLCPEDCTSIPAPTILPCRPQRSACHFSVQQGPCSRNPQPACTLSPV
Description: Briefly, KD was determined by the saturation method, by adding increasing doses of radiolabelled antibody to a constant number of cov434-AMHRII cells. […] For each antibody, fourfold dilutions were carried out in PBS/BSA 0.5% from the solutions of labelled and unlabelled antibody (84.4 μg/ml). The nonspecific fixation was evaluated by incubating the cells in the presence of a 100 times molar excess of unlabelled antibody.
After incubation, the samples were frozen in liquid nitrogen and then analysed in a gamma counter. The specific fixation was determined by subtracting the fixation obtained in the presence of an excess of unlabelled antibody.

[2] = target: T2, Epitope peptide GGGGNLTQDRAQVEMQGSR; assay: method not stated; Example 2, heading names cov434-AMHR-II cells and the epitope peptide
T2 peptide: GGGGNLTQDRAQVEMQGSR

[3] = target: T3, AMHR-II/Fc fusion protein (human, UniProt Q16671 18-149, limits assumed); assay: direct phage ELISA, target coated at 500 ng/well; 3.00E+09 phages per well as printed
T3 construct: also called AMHR-II recombinant receptor expressed in the form of fusion protein with a region Fc; recombinant target; not shown: Fc region

[4] = target: T3, AMHR-II/Fc fusion protein; assay: direct phage ELISA, target coated at 500 ng/well; 3.00E+09 phages per well as printed (second row)
[5] = target: T3, AMHR-II/Fc fusion protein; assay: direct phage ELISA, target coated at 500 ng/well; 3.00E+10 phages per well as printed
[6] = target: T3, AMHR-II/Fc fusion protein; assay: direct phage ELISA, target coated at 500 ng/well; 3.00E+10 phages per well as printed (second row)
[7] = target: T3, AMHR-II/Fc fusion protein; assay: direct phage ELISA, target coated at 500 ng/well; 3.00E+09 phages per well as printed (third row)
[8] = target: T1, AMHRII receptor expressed on cells …; assay: cell-based or functional assay
[9] = target: T3, AMHR-II/Fc fusion protein; assay: SPR, BIAcore X100; ratio against the chimeric 12G4
Description: (§1) The affinity of the antibodies for their antigen, AMHR-II, is determined by the SPR (Surface Plasmon Resonance) technique on BIACore X100 (BIACore, GE Healthcare). The AMHR-II recombinant receptor, expressed in the form of fusion protein with a region Fc, is immobilized by covalent coupling between its amine functions and the carboxyl groups of dextran activated in succinimide esters, present on the surface of the type CM5 sensor chip. The COOH groups of the sensor chip are activated for 7 minutes with EDC/NHS mixture (0.1 M of N-hydroxysuccinimide and 0.1 M of 3-(N,N-dimethylamino)propyl-N-ethylcarbodiimide) at a flow of 10 μl/min then the AMHR-II/Fc fusion protein, diluted to 5 μg/ml in 10 mM sodium acetate buffer, pH 4.0, is injected at […] on track 2 of the sensor chip so as to reach 300 RU. The ester groups that have not reacted with the amines of the fusion protein are deactivated by injection of a solution of ethanolamine-HCl 1M, pH 8.5 for 7 min at a flow of 10 μl:min. Track 1, serving as negative control, was activated and deactivated like track 2.
(§2) All the measurements are carried out at 25° C. The antibodies to be analysed are diluted in HBS-EP running buffer (BIACore, GE Healthcare) at concentrations from 6.25 to 3333 nM and injected on the sensor chip for 2 min at a flow of 30 μl/min. The dissociation step is monitored for 10 min and then the surface is regenerated by injection of 10 mM glycine buffer, pH 1.5 for 30 s at 10 μl/min.
(§3) The sensorgrams obtained are analysed using the 1:2 kinetic model of the BIAevaluation 3.1 software.

[10] = target: T1, AMHRII receptor expressed on cells …; assay: cell-based or functional assay; remark: listed apart in the source
[11] = target: T3, AMHR-II/Fc fusion protein; assay: SPR, BIAcore X100; AMHR-II/Fc immobilised on CM5 chip, antibody injected; 25 C
Description: as §1, §2, §3

[12] = target: T1, AMHRII receptor expressed on cells …; assay: cell-based or functional assay; remark: listed apart in the source

B1: murine 12G4 monoclonal antibody (antibody, V domains shown)
VH: QVQLQQSGPELVKPGASVRMSCKASGYTFTSYHIHWVKQRPGQGLEWIGWIYPGDDSTKYNEKFKGKTTLTADKSSSTAYMLLSSLTSEDSAIYFCTRGDRFAYWGQGTLVTVSA
VL: QIVLTQSPAIMSASLGEGITLTCSASSSVRYIHWYQQKSGTSPKLLIYSTSNLASGVPSRFSGSGSGTFHSLTISSVEAEDAADYYCLQWSSYPWTFGGGTKLEIK
notes: also called mLFB112; original murine 12G4 antibody
With B1 the Kd [1] was 15.4 nM, the Kd [2] was about 100 nM and the koff [2] was 0.00147 s⁻¹.

B2: huVH-VL, humanized antibody huLFB112 expressed as scFv on phage (scFv, part only; not given: scFv linker and phage partner, V domains shown, not shown: another chain or arm of the molecule; large carriers; small tags and cut ends)
VH: QVQLVQSGAEVKKPGASVKVSCKASGYTFTSYHIHWVRQAPGQRLEWMGWIYPGDDSTKYSQKFQGRVTITRDTSASTAYMELSSLRSEDTAVYYCTRGDRFAYWGQGTLVTVSS
VL: DIQMTQSPSTLSASVGDRVTITCRASSSVRYIAWYQQKPGKAPKLLIYSTSSLESGVPSRFSGSGSGTEFTLTISSLQPDDFATYYCLQWSSYPWTFGGGTKVEIK
B2 was tested, and the OD 450 nm, +covering [3] was 0.395 OD, the OD 450 nm, Diff (specific binding) [3] was 0.323 OD and the OD 450 nm, +covering [4] was 0.226 OD. For the same binder, the OD 450 nm, Diff (specific binding) [4] was 0.17 OD, the OD 450 nm, +covering [5] was 1.25 OD and the OD 450 nm, Diff (specific binding) [5] was 1.1 OD. For the same binder, the OD 450 nm, +covering [6] was 0.689 OD, the OD 450 nm, Diff (specific binding) [6] was 0.593 OD and the OD 450 nm, +covering [7] was 0.135 OD. The OD 450 nm, Diff (specific binding) [7] was 0.086 OD.

B3: mutated humanized 12G4 antibody 3C-23K produced in YB2/0 (antibody, human IgG1, kappa, V domains shown)
VH: B2 VH with Q3R
VL: DIQMTQSPSTLSASVGDRVTITCRASSSVRYIAWYQQKPGKAPKLLTYPTSSLKSGVPSRFSGSGSGTEFTLTISSLQPDDFATYYCLQWSSYPWTFGGGTKVEIKR
notes: Chains without leader; also called 3C_23K YB2/0; 3C-23K-YB2/0
With B3 the “% of lysis of ASC1 cells (ADCC with NK cells, LDH release) at 0.001 ng/ml antibody” value (from here on “% of lysis … at 0.001 ng/ml antibody”) [8] was 0%, the “% of lysis of ASC1 cells (ADCC with NK cells, LDH release) at 0.005 ng/ml antibody” value (“% of lysis … at 0.005 ng/ml antibody” for short) [8] was 8% and the “% of lysis of ASC1 cells (ADCC with NK cells, LDH release) at 0.05 ng/ml antibody” value (“% of lysis … at 0.05 ng/ml antibody” for short) [8] was 10%. The “% of lysis of ASC1 cells (ADCC with NK cells, LDH release) at 0.5 ng/ml antibody” value (“% of lysis of ASC1 cells … at 0.5 ng/ml antibody” below) [8] was 26%, the “% of lysis of ASC1 cells (ADCC with NK cells, LDH release) at 5 ng/ml antibody” value (“% of lysis of ASC1 cells … at 5 ng/ml antibody” below) [8] was 51% and the “% of lysis of ASC1 cells (ADCC with NK cells, LDH release) at 50 ng/ml antibody” value (from here on “% of lysis of ASC1 cells … at 50 ng/ml antibody”) [8] was 67%. The “% of lysis of ASC1 cells (ADCC with NK cells, LDH release) at 500 ng/ml antibody” value (“% of lysis of ASC1 cells … at 500 ng/ml antibody” below) [8] was 79%, the “% of lysis of ASC1 cells (ADCC with NK cells, LDH release) at 5000 ng/ml antibody” value (“% of lysis … at 5000 ng/ml antibody” below) [8] was 75% and the “KD chimeric/KD mutated” value [9] was 10. The “50% relative, ADCC on the COV434-AMHRII line (chimeric antibody = 1)” value (shortened to “50% relative, ADCC”) [10] was 0.84, the “EC50, ADCC on Asc 1 cells” value [10] was about 2.24 ng/mL and the “EC50, ADCC on META 2815 cells” value [10] was 30.5 ng/mL. For the same binder, the “fold cytotoxic activity on Asc 1 cells against 3C-23K-CHO” value [10] was about 40 fold, the “fold cytotoxic activity on META 2815 cells against 3C-23K-CHO” value [10] was about 146 fold and the Kd [11] was 21 nM. It also gave a koff [11] of 0.00086 s⁻¹, a kon [11] of 40000 M⁻¹ s⁻¹ and a Kd [1] of 5.3 nM. The “fold affinity against the original murine 12G4 antibody” value [1] was about 3 fold, the “EC50 (ng/ml), ADCC on ASC1 cells” value [12] was 1.7 ng/mL and the “Emax (% of lysis), ADCC on ASC1 cells” value [12] was 79 % of lysis.

B4: mutated humanized 12G4 antibody 6B-78 produced in YB2/0 (antibody, human IgG1, kappa, V domains shown)
VH: B2 VH
VL: B3 VL with T47I, P49S
notes: Chains without leader; Mutation VL-E184K; also called 6B_78 YB2/0; R901 6B78
B4 was tested, and the “% of lysis … at 0.001 ng/ml antibody” value [8] was 0%, the “% of lysis … at 0.005 ng/ml antibody” value [8] was 14% and the “% of lysis … at 0.05 ng/ml antibody” value [8] was 5%. For the same binder, the “% of lysis of ASC1 cells … at 0.5 ng/ml antibody” value [8] was 3%, the “% of lysis of ASC1 cells … at 5 ng/ml antibody” value [8] was 28% and the “% of lysis of ASC1 cells … at 50 ng/ml antibody” value [8] was 42%. The “% of lysis of ASC1 cells … at 500 ng/ml antibody” value [8] was 48%, the “% of lysis … at 5000 ng/ml antibody” value [8] was 53% and the “KD chimeric/KD mutated” value [9] was 2.6. The “50% relative, ADCC” value [10] was 36.9, the Kd [11] was 82 nM and the koff [11] was 0.0013 s⁻¹. For the same binder, the kon [11] was 16000 M⁻¹ s⁻¹, the Kd [1] was 6.68 nM and the “EC50 (ng/ml), ADCC on ASC1 cells” value [12] was 5.38 ng/mL. The “Emax (% of lysis), ADCC on ASC1 cells” value [12] was 51.9 % of lysis.

B5: mutated humanized 12G4 antibody 3C-23 produced in YB2/0 (antibody, human IgG1, kappa, V domains shown)
VH: B2 VH with Q3R
VL: B3 VL with K54E
notes: Chains without leader; Mutations VH-Q3R, VL-I177T/S179P; also called 3C_23 YB2/0; R901 3C23
For B5, the “% of lysis … at 0.001 ng/ml antibody” value [8] was 0%, the “% of lysis … at 0.005 ng/ml antibody” value [8] was 8% and the “% of lysis … at 0.05 ng/ml antibody” value [8] was 9%. The “% of lysis of ASC1 cells … at 0.5 ng/ml antibody” value [8] was 13%, the “% of lysis of ASC1 cells … at 5 ng/ml antibody” value [8] was 35% and the “% of lysis of ASC1 cells … at 50 ng/ml antibody” value [8] was 46%. The “% of lysis of ASC1 cells … at 500 ng/ml antibody” value [8] was 52%, the “% of lysis … at 5000 ng/ml antibody” value [8] was 63% and the “KD chimeric/KD mutated” value [9] was 2.3. The “50% relative, ADCC” value [10] was 6.41, the Kd [11] was 92 nM and the koff [11] was 0.0033 s⁻¹. For the same binder, the kon [11] was 36000 M⁻¹ s⁻¹, the Kd [1] was 7.33 nM and the “EC50 (ng/ml), ADCC on ASC1 cells” value [12] was 6.3 ng/mL. The “Emax (% of lysis), ADCC on ASC1 cells” value [12] was 65.5 % of lysis.
